We go through one molecule from patent WO2014041119A1 (dated 2014).

The target of the assay is T1, EGFR on the surface of A431 cells (human, UniProt P00533 25-1210).
T1 construct: whole, on cells; also called cell surface EGFR
Kind of assay: flow cytometry on A431 cells with cetuximab or rituximab pre-incubation.

B1: ONC-scFvEGFR (onconase (ONC) fused to a single-chain antibody fragment (scFv) against EGFR) (scFv)
chain: QDWLTFQKKHITNTRDVDCDNIMSTNLFHCKDKNTFIYSRPEPVKAICKGIIASKNVLTTSEFYLSDCNVTSRPCKYKLKKSTNKFCVTCENQAPVHFVGVGSCGGGGSGGGGSGGGGSEVQLVESGGGLVQPGGSLRLSCAASGFSLTNYGVHWVRQAPGKGLEWLGVIWSGGNTDYNTPFTSRFTISRDNSKNTLYLQMNSLRAEDTAVYYCARALTYYDYEFAYWGQGTTVTVSSGGGGSGGGGSGGGGSDIQLTQSPSFLSASVGDRVTITCRASQSIGTNIHWYQQKPGKAPKLLIKYASESISGVPSRFSGSGSGTEFTLTISSLQPEDFATYYCQQNNNWPTTFGAGTKLEIKRAAAEQKLISEEDLNGAAHHHHHH
notes: also called immunoRNase; fusion polypeptide
Take B1: the binding result is “binds”.
